Test results published in PMC10858482.

Molecular target: SARS-CoV-2 Omicron BA.1 spike protein (SARS-CoV-2 (Omicron BA.1)) (UniProt P0DTC2)
Assay: cryo-EM structure; Tr67 and Omicron BA.1 spike mixed in a 1.5:1 weight ratio, 0.3 mg/ml; single-particle analysis, C3 symmetry, map at ~9 Å

SARS-CoV-2 Omicron BA.1 spike protein (from UniProt P0DTC2 14-1273) (natural protein)
stoichiometry N: 3
